Test results from publication doi:10.1101/2025.09.11.675134, “Biodistribution-Driven Discovery Identifies a Glycosidase-Cleavable Linker to Reprogram Radiotheranostics” (bioRxiv, 2025).

System: AR42J xenografts
Test: Ex vivo biodistribution of 111In-labeled variants in AR42J xenograft mice
Parameters: species or system athymic nude mice
Conditions: AR42J xenografts, 1 h post-injection
Method: For studies involving three variants (DOTA -TATE, DOTA-MVK(ε)-TATE, and DOTA-β-Gal-TATE), AR42J cells (5 × 10^6 cells per mouse) were subcutaneously inoculated into the right shoulder of the mice. Tumors were allowed to grow for 3 weeks, reaching a volume of 100 –200 mm³ before being used in subsequent experiments. For biodistribution or PET imaging studies, mice bearing subcutaneous AR42J tumors were administered 1.4 – 1.8 MBq (1 μg) of 111In-labeled DOTA-TATE variants or 2.7 – 4.9 MBq (1 μg) of 86Y-labeled DOTA-TATE variants via tail vein injection. Biodistribution studies with 111In-labeled DOTA -TATE variants were performed 1 hour post -injection (n = 3 per cohort), while studies with 86Y-labeled DOTA-TATE variants were conducted at 1, 4, and 24 hours post -injection (n = 3 per cohort). Mice were euthanized by CO2 asphyxiation, and 10 tissues, including tumors, were collected. All samples were weighed and counted on a gamma counter (2480 Wizard 3, Perkin Elmer Inc., Waltham, MA, USA). Results are presented as percentage of injected activity per gram (%IA/g) and mean values ± standard deviations. […]

C[C@@H](O)[C@H](NC(=O)[C@@H]1CSSC[C@H](NC(=O)[C@@H](Cc2ccccc2)NC(=O)CCCC(=O)Nc2cc(COC(=O)N(C)CCNC(=O)CN3CCN(CC(=O)O)CCN(CC(=O)O)CCN(CC(=O)O)CC3)ccc2O[C@@H]2O[C@H](CO)[C@H](O)[C@H](O)[C@H]2O)C(=O)N[C@@H](Cc2ccc(O)cc2)C(=O)N[C@H](Cc2c[nH]c3ccccc23)C(=O)N[C@@H](CCCCN)C(=O)N[C@@H]([C@@H](C)O)C(=O)N1)C(=O)O [^111In-DOTA-β-Gal-TATE, metal not drawn]
Improvement of T/K ratio over DOTA-TATE: 2.7 fold
Increase in tumor uptake compared to DOTA-TATE: ~ 90%
Reduction in kidney retention compared to DOTA-TATE: ~ 29%
